# Paper PMC2878131 (Science (New York, N.Y.), 2010)
# T1: preMADH α subunit (Paracoccus denitrificans, UniProt P29894 29-417)
# T1 sequence (looked up): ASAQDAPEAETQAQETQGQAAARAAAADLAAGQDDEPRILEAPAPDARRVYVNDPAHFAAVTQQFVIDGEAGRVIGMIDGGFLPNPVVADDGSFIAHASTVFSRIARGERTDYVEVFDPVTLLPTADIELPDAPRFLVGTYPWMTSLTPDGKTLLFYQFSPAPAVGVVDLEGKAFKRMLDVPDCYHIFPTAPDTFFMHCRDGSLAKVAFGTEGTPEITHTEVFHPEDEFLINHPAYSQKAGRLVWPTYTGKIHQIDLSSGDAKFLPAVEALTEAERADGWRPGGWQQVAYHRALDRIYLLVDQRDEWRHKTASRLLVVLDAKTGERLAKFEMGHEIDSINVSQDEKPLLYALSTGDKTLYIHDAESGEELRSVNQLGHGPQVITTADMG
# B1: preMADH β subunit (natural protein, Paracoccus denitrificans, UniProt P22619 58-188, looked up)
# chain: ADAPAGTDPRAKWVPQDNDIQACDYWRHCSIDGNICDCSGGSLTNCPPGTKLATASWVASCYNPTDGQSYLIAYRDCCGYNVSGRCPCLNTEGELPVYRPEFANDIIWCFGAEDDAMTYHCTISPIVGKAS
# modifications: βTrp57 monohydroxylated at the C7 carbon of the indole ring; no cross-link between βTrp57 and βTrp108
# Biological target: T1, preMADH α subunit
# Experiment: crystal structure
binder,measurement,value
B1,binding result,binds
